Columns and labels:
[1] = biological target: T1, aminoacyl-tRNA-synthetase-interacting multifunctional protein 1 (AIMP1), recombinant (UniProt Q12904 1-312, limits assumed); test: Luminex multiplex bead assay, antigen coupled to beads, anti-HA-biotin and SA-PE detection
T1 construct: also called AIMP1(p43); p43
T1 sequence (looked up): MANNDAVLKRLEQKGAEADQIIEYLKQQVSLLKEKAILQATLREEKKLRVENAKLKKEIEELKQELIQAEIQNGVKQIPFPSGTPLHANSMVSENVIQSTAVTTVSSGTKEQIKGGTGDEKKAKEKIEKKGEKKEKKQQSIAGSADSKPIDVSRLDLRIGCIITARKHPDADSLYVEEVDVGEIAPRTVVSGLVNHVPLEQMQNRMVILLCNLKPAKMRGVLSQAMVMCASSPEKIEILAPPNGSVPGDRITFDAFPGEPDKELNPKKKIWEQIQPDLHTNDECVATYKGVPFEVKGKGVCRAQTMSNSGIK
Protocol: (§1) Then, 50 mg/ml S—NHS (N-hydroxysulfosuccinimide) and 50 mg/ml EDAC (1-ethy-3-[3-dimethylaminopropyl]carbodiimide) were added, followed by activation at room temperature for 20 minutes. The activated beads were washed with PBS, and then 10 μg of respective recombinant ARS antigens, that is, WRS, HRS, NRS, KRS, SRS, YRS, GRS, and AIMP1(p43), which were purified at purity of 90% or higher, were added, followed by reaction at room temperature for 2 hours. The beads linked to the respective ARS antigens were washed. two times with PBS, and then a blocking buffer was added to perform a reaction at room temperature for 30 minutes, thereby blocking unbound residues. Then, the resultant beads were washed two times with PBS, and again dispersed in 100 μl of PBS, and kept in tubes in which the light was blocked. The number of beads bound was measured and recorded by hemocytometer.
(§2) The antibody of the present invention extracted from the periplasm was first diluted with a specimen diluent (PBST+2% BSA) to 1:400. Then, the diluted antibody was diluted 2-fold serially with a specimen diluent, and dispensed in 96 well filter plate at 50 μl for each well. Only the specimen diluent was added in the blank well without the antibody. The ARS-bound beads were put in bead mix tubes to 2000 beads per well, respectively, and the specimen diluent was put with a volume such that 50 μl of the specimen diluent could be put per well. The bead mix solution was well mixed and dispensed in each well, followed by reaction in dark room for 1 hour. After the reaction was ended, the resultant solution was washed three times with PBS (200 μl/well) using a vacuum manifold, 50 μl Anti-(HA)-biotin secondary antibody was added, followed by further reaction in dark room for 1 hour. The beads binding to the secondary antibody were washed three times with PBS, and then, for fluorescent labeling, SA-PE (Streptavidin-Phycoerythrin) was added to 2 μg/ml, followed by reaction in dark room for 30 minutes, washing three times with PBS, and again dispersion in 100 μl of PBS. The fluorescent intensity of the fluorescence-labeled beads was measured using Bio-Plex (Luminex) 200 equipment and Bio-Plex manager program, and the measurement values were analyzed to investigate the binding of the antibody to each ARS.

[2] = biological target: T2, tryptophanyl-tRNA synthetase (WRS), recombinant (UniProt P23381 1-471, limits assumed); test: as above
T2 sequence (looked up): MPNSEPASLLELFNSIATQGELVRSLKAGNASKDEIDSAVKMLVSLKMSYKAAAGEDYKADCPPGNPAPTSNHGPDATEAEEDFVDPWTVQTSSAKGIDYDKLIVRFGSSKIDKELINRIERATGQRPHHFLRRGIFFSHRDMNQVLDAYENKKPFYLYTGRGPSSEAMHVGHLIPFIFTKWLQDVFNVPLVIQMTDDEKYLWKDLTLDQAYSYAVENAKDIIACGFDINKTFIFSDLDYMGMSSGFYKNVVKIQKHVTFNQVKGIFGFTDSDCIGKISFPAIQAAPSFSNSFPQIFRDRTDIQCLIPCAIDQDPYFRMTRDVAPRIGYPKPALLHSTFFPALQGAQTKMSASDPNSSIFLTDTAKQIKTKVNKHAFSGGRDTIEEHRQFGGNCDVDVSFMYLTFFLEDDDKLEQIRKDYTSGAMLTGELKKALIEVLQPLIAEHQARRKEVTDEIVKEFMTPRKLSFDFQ
Protocol: as §1, §2

[3] = biological target: T3, histidyl-tRNA synthetase (HRS), recombinant (UniProt P12081 1-509, limits assumed); test: as above
T3 sequence (looked up): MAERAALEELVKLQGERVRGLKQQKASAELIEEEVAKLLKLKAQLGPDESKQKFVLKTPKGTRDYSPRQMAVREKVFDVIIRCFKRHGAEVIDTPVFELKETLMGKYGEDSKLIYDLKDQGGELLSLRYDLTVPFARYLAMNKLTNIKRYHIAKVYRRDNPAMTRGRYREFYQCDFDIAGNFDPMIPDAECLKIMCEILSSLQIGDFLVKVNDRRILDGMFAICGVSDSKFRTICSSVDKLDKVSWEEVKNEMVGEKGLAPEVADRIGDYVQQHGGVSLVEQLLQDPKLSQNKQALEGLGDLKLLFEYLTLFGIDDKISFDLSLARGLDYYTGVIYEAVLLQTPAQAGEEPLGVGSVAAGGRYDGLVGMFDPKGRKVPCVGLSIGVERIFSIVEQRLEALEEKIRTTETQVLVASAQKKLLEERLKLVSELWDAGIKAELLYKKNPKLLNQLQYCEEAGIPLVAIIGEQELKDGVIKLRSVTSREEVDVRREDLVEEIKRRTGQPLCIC
Protocol: as §1, §2

[4] = biological target: T4, asparaginyl-tRNA synthetase (NRS), recombinant (UniProt O43776 1-548, limits assumed); test: as above
T4 sequence (looked up): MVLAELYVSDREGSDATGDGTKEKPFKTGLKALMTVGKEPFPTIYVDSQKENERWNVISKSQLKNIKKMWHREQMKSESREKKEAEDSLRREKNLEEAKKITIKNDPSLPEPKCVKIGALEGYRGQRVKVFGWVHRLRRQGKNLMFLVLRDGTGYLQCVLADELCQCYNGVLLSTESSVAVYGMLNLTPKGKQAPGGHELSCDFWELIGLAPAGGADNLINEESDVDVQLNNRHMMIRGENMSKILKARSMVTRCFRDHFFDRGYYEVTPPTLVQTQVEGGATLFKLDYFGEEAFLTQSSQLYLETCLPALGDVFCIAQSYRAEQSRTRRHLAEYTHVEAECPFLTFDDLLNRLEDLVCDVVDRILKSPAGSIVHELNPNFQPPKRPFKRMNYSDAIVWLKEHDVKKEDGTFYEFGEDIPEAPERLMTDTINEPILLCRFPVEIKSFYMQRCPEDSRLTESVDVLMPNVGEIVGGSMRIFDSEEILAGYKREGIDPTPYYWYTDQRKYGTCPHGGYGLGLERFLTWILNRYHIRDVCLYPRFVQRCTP
Protocol: as §1, §2

[5] = biological target: seryl-tRNA synthetase (SRS), recombinant (UniProt P49591 1-514, limits assumed); test: as above
Sequence of seryl-tRNA synthetase (SRS), recombinant (P49591 whole entry): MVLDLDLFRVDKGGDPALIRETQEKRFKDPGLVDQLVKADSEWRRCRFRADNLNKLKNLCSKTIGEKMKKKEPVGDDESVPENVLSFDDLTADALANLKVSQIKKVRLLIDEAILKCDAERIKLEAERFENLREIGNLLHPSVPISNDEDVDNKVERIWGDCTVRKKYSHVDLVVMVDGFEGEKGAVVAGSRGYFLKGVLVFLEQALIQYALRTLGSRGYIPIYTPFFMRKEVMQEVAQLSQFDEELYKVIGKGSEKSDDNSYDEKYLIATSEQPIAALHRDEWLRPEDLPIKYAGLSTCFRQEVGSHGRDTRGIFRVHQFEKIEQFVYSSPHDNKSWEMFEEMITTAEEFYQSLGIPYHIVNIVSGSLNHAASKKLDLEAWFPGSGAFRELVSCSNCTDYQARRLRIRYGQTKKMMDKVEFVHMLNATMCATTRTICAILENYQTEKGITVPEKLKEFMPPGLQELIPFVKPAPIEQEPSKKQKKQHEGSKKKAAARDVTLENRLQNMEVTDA
Protocol: as §1, §2

[6] = biological target: T5, tyrosyl-tRNA synthetase (YRS), recombinant (UniProt P54577 1-528, limits assumed); test: as above
T5 sequence (looked up): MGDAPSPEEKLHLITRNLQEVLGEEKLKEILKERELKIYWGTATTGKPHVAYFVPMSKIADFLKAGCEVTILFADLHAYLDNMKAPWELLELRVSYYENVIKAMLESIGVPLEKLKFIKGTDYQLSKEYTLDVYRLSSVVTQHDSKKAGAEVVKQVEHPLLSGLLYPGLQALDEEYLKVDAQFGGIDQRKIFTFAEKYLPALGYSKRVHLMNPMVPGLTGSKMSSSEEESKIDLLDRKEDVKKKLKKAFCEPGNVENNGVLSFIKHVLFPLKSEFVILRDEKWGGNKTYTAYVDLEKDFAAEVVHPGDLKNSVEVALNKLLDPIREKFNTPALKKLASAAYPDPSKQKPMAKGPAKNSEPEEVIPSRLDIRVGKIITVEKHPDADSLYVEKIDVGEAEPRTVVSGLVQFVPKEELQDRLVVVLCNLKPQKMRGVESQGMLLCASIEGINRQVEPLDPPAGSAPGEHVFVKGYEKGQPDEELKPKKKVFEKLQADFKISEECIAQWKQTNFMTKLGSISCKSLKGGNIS
Protocol: as §1, §2

[7] = biological target: T6, glycyl-tRNA synthetase (GRS), recombinant (UniProt P41250 55-739, limits assumed); test: as above
T6 sequence (looked up): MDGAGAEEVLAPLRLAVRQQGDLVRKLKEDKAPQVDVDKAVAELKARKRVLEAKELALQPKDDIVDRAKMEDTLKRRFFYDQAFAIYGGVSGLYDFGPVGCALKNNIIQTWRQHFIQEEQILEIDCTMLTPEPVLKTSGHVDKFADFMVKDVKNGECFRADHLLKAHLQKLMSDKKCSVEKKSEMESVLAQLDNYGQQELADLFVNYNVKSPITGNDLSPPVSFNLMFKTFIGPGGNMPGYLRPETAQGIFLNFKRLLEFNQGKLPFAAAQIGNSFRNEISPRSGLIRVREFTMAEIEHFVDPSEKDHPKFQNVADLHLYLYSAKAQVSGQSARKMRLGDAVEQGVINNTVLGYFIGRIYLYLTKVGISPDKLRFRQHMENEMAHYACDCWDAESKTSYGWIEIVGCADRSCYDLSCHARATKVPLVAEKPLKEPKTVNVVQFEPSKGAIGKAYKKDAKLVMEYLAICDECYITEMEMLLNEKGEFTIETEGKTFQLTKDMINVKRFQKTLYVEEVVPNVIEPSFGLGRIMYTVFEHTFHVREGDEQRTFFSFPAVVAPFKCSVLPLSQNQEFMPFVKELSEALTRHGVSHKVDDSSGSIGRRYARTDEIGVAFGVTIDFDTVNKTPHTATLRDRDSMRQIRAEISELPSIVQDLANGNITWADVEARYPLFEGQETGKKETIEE
Protocol: as §1, §2

[8] = biological target: T7, lysyl-tRNA synthetase (KRS), recombinant (human, UniProt Q15046 1-597, limits assumed); test: SPR (ProteOn XPR36), KRS amine-coupled to GLC chip, purified scFv injected at 500-30 nM, 25 C
T7 construct: the construct is not described; also called KRS antigen; recombinant KRS standard material
T7 sequence (Q15046 whole entry): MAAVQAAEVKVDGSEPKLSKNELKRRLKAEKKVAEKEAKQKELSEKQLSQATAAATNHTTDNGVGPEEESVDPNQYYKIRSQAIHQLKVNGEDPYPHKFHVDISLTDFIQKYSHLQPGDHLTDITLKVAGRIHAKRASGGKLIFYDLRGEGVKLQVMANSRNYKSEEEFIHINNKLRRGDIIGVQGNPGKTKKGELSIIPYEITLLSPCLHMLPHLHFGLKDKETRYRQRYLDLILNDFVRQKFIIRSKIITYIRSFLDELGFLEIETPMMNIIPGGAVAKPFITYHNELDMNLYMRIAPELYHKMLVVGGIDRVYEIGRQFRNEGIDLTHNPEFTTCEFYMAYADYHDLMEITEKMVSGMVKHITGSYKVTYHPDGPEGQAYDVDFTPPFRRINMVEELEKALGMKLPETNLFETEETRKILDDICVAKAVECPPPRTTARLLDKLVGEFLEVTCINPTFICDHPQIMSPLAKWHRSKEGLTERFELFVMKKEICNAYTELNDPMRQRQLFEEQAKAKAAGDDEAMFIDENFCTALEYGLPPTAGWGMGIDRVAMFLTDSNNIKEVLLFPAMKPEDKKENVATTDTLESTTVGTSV
Protocol: The binding affinity of the antibody of the present invention to KRS antigen was measured using the ProteOnTMXPR36 SPR (surface plasmon resonance) biosensor (Bio-Rad).
Specifically, approximately 10 μg/ml KRS antigen was immobilized at about 2,000-4,000 response units to GLC chip (Bio-Rad 6×6 sensor chip, Compact capacity amine coupling for protein-protein interactions) according to the manufacturer's manual, and then 30 μl of the purified scFv antibody of the present invention, which was diluted with PBS to various concentrations (500-30 nM), was injected to the chip at a rate of 50 μl/min at 25° C. to quantify the interaction with the antigen. The surface of the chip was regenerated with 0.85% phosphoric acid. The association rate and dissociation rate were calculated using the ProteOn Manager software, and the equilibrium dissociation constant (KD) was calculated as a ratio of dissociation rate/association rate.

B1: anti-KRS scFv Biocon-K1 (scFv)
scFv: EVQLLESGGGLVQPGGSLRLSCAASGFTFSNYAMSWVRQAPGKGLEWVSGISPSSGDTYYADSVKGRFTISRDNSKNTLYLQMNSLRAEDTAVYYCAKGVWWYHPLLFDYWGQGTLVTVSSGGGGSGGGGSGGGGSQSVLTQPPSASGTPGQRVTISCSGSSSNIGNNTVSWYQQLPGTAPKLLIYANSKRPSGVPDRFSGSKSGTSASLAISGLRSEDEADYYCGAWDSSLSGYVFGGGTKLTVL
notes: Single clone from a human VH3-23/VL1g phage scFv library, expressed in the E. coli periplasm; Purified scFv was used in SPR and ELISA, periplasmic extract in western blot and Luminex assay; also called antibody of the present invention; anti-KRS scFv antibody; not shown: His and HA tags of the pComb3X vector are implied by Ni-NTA purification and anti-HA detection
- binding result [1]: no binding
- binding result [2]: no binding
- binding result [3]: no binding
- binding result [4]: no binding
- binding result [5]: no binding
- binding result [6]: no binding
- binding result [7]: no binding
- Kd [8]: 0.1 µM
